According to US20250369982A1, “METHODS OF DETECTING DDR1 PHOSPHORYLATION” (IncendiaTherapeutics, Inc., priority 2022, published 2025):
Where two headings read alike, the source gives them in different places.

B1: rabbit mAb #33: rabbit anti-DDR1 monoclonal antibody, light chain SEQ ID NO: 164, heavy chain SEQ ID NO: 165 (antibody)
heavy: QSVEESGGRLVTPGGSLTLTCTVSGFSLSSYDMSWVRQAPGKGLEWIGISWNSGFVDYASWAKGRFSISKTSTTVDLKITSPTTEDTATYFCARLGADDIYYFNLWGPGTLVTISSGQPKAPSVFPLAPCCGDTPSSTVTLGCLVKGYLPEPVTVTWNSGTLTNGVRTFPSVRQSSGLYSLSSVVSVTSSSQPVTCNVAHPATNTKVDKTVAPSTCSKPTCPPPELLGGPSVFIFPPKPKDTLMISRTPEVTCVVVDVSQDDPEVQFTWYINNEQVRTARPPLREQQFNSTIRVVSTLPIAHQDWLRGKEFKCKVHNKALPAPIEKTISKARGQPLEPKVYTMGPPREELSSRSVSLTCMINGFYPSDISVEWEKNGKAEDNYKTTPAVLDSDGSYFLYSKLSVPTSEWQRGDVFTCSVMHEALHNHYTQKSISRSPGK
light: ELVMTQTPASVEAAVGGTVTIKCQASETISSRLAWYQQKPGQPPKLLIYQASKLPSGVPSRFKGTGSGTEYTLTISDLECADAATYYCQGCYYGGGSFYDSAFGGGTEVVVKGDPVAPTVLIFPPAADQVATGTVTIVCVANKYFPDVTVTWEVDGTTQTTGIENSKTPQNSADCTYNLSSTLTLTSTQYNSHKEYTCKVTQGTTSVVQSFNRGDC
B2: #33 inert IgG1: rabbit mAb #33 heavy and light chain variable domains fused to human IgG1 constant domains; SEQ ID NOs: 23 and 24 (protein)
chain 1: ELVMTQTPASVEAAVGGTVTIKCQASETISSRLAWYQQKPGQPPKLLIYQASKLPSGVPSRFKGTGSGTEYTLTISDLECADAATYYCQGCYYGGGSFYDSAFGGGTEVVVKRTVAAPSVFIFPPSDEQLKSGTASVVCLLNNFYPREAKVQWKVDNALQSGNSQESVTEQDSKDSTYSLSSTLTLSKADYEKHKVYACEVTHQGLSSPVTKSFNRGEC
chain 2: QSVEESGGRLVTPGGSLTLTCTVSGFSLSSYDMSWVRQAPGKGLEWIGISWNSGFVDYASWAKGRFSISKTSTTVDLKITSPTTEDTATYFCARLGADDIYYFNLWGPGTLVTISSASTKGPSVFPLAPSSKSTSGGTAALGCLVKDYFPEPVTVSWNSGALTSGVHTFPAVLQSSGLYSLSSVVTVPSSSLGTQTYICNVNHKPSNTKVDKRVEPKSCDKTHTCPPCPAPEAEGAPSVFLFPPKPKDTLMISRTPEVTCVVVDVSHEDPEVKFNWYVDGVEVHNAKTKPREEQYNSTYRVVSVLTVLHQDWLNGKEYKCKVSNKALPSSIEKTISKAKGQPREPQVYTLPPSREEMTKNQVSLTCLVKGFYPSDIAVEWESNGQPENNYKTTPPVLDSDGSFFLYSKLTVDKSRWQQGNVFSCSVMHEALHNHYTQKSLSLSPGK

Columns and labels:
DDR1 = biological target: T1, DDR1 (Homo sapiens, UniProt Q08345); test: Inhibition of collagen-induced DDR1 phosphorylation in T47D cells (Jess immunoassay); assay type: cell-based; conditions: serum-starved T47D cells, 2 h pretreatment, 50 μg/ml human collagen I for 90 minutes
T1 construct: Cultured T47D breast cancer cells were serum starved for 16 hours; endogenous in cells; host or cells: T47D breast cancer cells
T1 sequence (Q08345 19-913): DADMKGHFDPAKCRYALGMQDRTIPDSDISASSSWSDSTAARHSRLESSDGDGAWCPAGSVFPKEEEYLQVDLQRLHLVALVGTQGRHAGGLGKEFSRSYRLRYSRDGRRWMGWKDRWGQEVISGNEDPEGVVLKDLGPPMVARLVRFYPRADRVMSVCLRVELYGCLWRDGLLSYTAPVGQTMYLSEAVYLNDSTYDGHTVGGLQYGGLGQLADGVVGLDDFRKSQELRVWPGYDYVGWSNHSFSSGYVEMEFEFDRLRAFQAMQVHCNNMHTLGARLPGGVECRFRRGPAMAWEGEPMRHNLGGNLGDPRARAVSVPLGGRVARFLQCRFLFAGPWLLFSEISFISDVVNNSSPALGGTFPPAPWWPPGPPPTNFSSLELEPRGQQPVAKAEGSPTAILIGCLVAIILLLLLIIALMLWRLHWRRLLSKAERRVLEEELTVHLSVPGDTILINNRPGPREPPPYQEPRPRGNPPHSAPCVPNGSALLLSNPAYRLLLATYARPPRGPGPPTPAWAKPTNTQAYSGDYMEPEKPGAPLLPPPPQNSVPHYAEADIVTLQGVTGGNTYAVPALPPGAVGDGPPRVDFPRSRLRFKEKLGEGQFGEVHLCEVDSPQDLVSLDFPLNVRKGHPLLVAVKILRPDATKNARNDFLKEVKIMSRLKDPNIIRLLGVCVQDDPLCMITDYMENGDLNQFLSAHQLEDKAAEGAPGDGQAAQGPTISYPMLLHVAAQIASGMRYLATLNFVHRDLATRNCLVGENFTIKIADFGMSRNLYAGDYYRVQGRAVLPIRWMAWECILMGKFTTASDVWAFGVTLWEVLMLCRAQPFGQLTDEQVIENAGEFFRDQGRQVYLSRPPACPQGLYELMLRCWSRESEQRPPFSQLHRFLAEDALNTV
Description: Cells treated with 200 nM of 2.45-IN [2-(4-Bromo-2-oxo-1′-(1H-pyrazolo[4,3-b]pyridine-5-carbonyl)spiro[indoline-3,4′-piperidin]-1-yl)-N-(2,2,2-trifluoroethyl) acetamide] were used as positive control for inhibition of DDR1 phosphorylation. Cell lysate was then analyzed via Jess immunoassay (ProteinSimple).
Serum-starved T47D cells were pretreated for two hours with increasing concentrations of monoclonal antibody or IgG control, followed by stimulation with 50 μg/ml of human collagen I for 90 minutes.

[1] = Pharmacokinetic profiles of anti-DDR1 mAbs in mice (ELISA of circulating antibody); assay type: in vivo, mouse; conditions: female C57B16JrJ mice, intraperitoneal, 10 mg/kg; for Cmax: circulating free and partially bound antibody
Description: To evaluate the pharmacokinetic profiles of anti-DDR1 mAbs, mAbs were administered intraperitoneally to female C57B16JrJ mice at a dose of 10 mg/kg, serial blood sampling was performed over time (FIG. 4A), and ELISA was used to measure circulating free and partially bound antibody. […] Further, as shown in FIG. 4E and Table S1 below, the maximal circulating (free and partially bound) concentrations of each mAb were higher than the concentration required to bind to target (as shown by the surface plasmon resonance results of mAb binding to mouse DDR1 extracellular domain; see Table S2 below). Moreover, the maximal circulating (free and partially bound) concentrations of mAb #9H1 WT IgG1 were higher than the in vitro concentration required to inhibit Collagen I-induced phosphorylation of DDR1 in T47D cells (see FIG. 1).

Row | Molecule | inhibition of collagen I-induced phosphorylation of DDR1 (in words) (DDR1) | exposure over 168 hours (in words) [1] | tmax [1] [h] | Cmax [1] [µg/mL] | Cmax ([1]; read-out: Cmax) [nM]
1 | B1 | able to inhibit |  |  |  | 
2 | B2 |  | comparable to expected exposures for IgG1 | 48 | 131.82 | 650
